Patent CN113817050A (WUHAN INST OF BIOLOGICAL PRODUCTS CO LTD, dated 2021)

Experiments:
[1] = molecular target: SARS-CoV-2 RBD结构域重组蛋白(Sino公司，货号40592-V05H) (SARS-CoV-2 (2019-nCoV), UniProt P0DTC2 319-541)
[2] = molecular target: SARS-CoV-2刺突S1亚基蛋白(Sino公司，货号:40591-V02H) (SARS-CoV-2 (2019-nCoV), UniProt P0DTC2 16-685)
[3] = molecular target: T1, SARS-CoV-2刺突S1-His重组蛋白(Sino公司，货号:40591-V08H) (SARS-CoV-2 (2019-nCoV), UniProt P0DTC2 16-685); assay: ELISA, S1-His coated at 1.0 μg/mL, detection by goat anti-human IgG-HRP
T1 construct: domain: S1; also called S1蛋白; 刺突蛋白S1

B1: 抗SARS-CoV-2的单克隆抗体1H8 (antibody, V domains shown)
VH: EVQLVESGGGLVQPGGSLRLSCAASEITVSSNYMNWVRQAPGKGLEWVSVIYSGGTTYYADSVKGRFTISRDNSENTLYLQMNSLRAEDTAVYYCARDLMEVGGMDVWGQGTTVTVSS
VL: DIVMTQSPSSLSASVGDRVTITCRASQGVSNYLAWYQQKPGKVPKLLIYAASTLQSGVPSRFSGSRSGTDFTLTISSLQPEDVATYYCQNYNSAPFAFGPGTKVEIK
notes: also called 人源抗SARS-CoV-2抗体1H8; 1H8抗体
With B1 as the binder, how does the EC50 [1] read?
The EC50 was 0.035 nM.

And the IC50 [1]?
The IC50 was 3.6 nM.

And the IC50 [2]?
The IC50 was 5.76 nM.

What about the EC50 [3] of the same binder?
The EC50 was 0.054 nM.
